Reference: a protein production outcome set (Wang et al. 2014)

Test: label from the status in PepcDB records

Row | Sequence | protein production
1 | MCAEIPAMGPDLAIARAAAARWRKRAAEREQTRKTLDHQPAGHFTPVDSVDRLAKRAGRLQQWAAAIRALPPAAILGLPAAPPPTGGAADTREIDMVAPALSLRALAAERIIGETSDLLSVEFLEIGVAAARAVGLITTRGAPNGTGFLVAPDVVLTNNHVLPDVRTARASALEMDFETNRHGPRKEVQSFELDPDGFFLTDAPLDFTLVRVRPTSDGGQALSDYGFLPLIAAEGKIAVGEPLNIIQHPGGRVKQAALRNNRLLDLPPSNEADALNPDAVFHYETDTEKGSSGSPVFNDQWEVVALHHTGVPKTDASGAMIDADGRVVPDSQPERIVWIGNEGIRISRLYQYVFTFTFADPAMASVRDALIALWTDAGRPGWARTAAEAETIVHPPAALADPPPAAPAIIPLAEERGAAIAPDPADPAYARRPGFRSDFLGLPTPLPRLVDDSRGPLATFGEGVSELRYHHYSVLMNARRRLAYVAAVNIDHRAPFDVQRGTDRWFFDPRLPKRLQAGGDYYAANPLDRGHLVRRDDAAWGYTQAEAQLANDDTFHWTNCSPQHEVFNQSAKASGKGLLLWGNLENAVVDLAKATNGRLCVYNGPLFTEDDRPYRQDFFVPGAFWKLIALIDGQSRPRALAFRLSQAAQIADLPAEAFAPAELAAFTPVQIPVATLGALTGLDFGALAQWDPLAAGSDGVSKETLSPPRSIILTREADIVF | failed
2 | METTHYSIAQHFSSGDFPAVYACFNDIIEWNIIGNQVVKGKADVIDFCNKMLPEMKGAVLTNDNVIQNENQIVIEGKCRYFDAEGKEAFVSYCDIYRFENDTIKTITSYCI | not failed
3 | MVVNTLGRYFARRFVIASLGVFFGLFVLLVFVDYVDLLRRAGGLAVSAFYVAQASFCRVPQLLERLLPFCILIGGMTCYLALSRSLELVVARAAGLSAWEFISPALWSAIAIGIFATTVFNPLSAHMQERAKQMEAEMFGENTGGLQDANGFWMNQVSPDGQAIINAARSQQQGAVLTGITVFRFEPDFQFKDRIEAREAVLEPGHWLLKNVRRYTMDGAPVDQDTLELPTSLTLAQVRNSFATPESVSFWQLPTYIKSSENSGFATAGYRLQYHKLLAKPFLLAAMVMLAASVSLRFFRFGGVQKMVLSGVAAGFLLYILSKVTEDLSKAELMHPLAAAWLPVCVGGLAGFLALLYQEDG | failed
4 | MGLSNKFKSFFFLDEEEEYYEEEVAREPEPMQKKTKKEKPSKNRFYAVEEEDAKVVSMQGAQFSSRMVLAEPRVYAEAQELADYLKDYKTVVVNLQRISHDQATRIVDFLSGTVYALGGDIQRVGNNIFLTPDNVEVNGSISEMLDEQNFMLEHHHHHH | failed
5 | MNTRHFSQLPKPYLAYPKVIQGLVFKKPKGSKILPQVEYVVDSFQIDQQHLRDYNEVCGFQNDGFIPAIYLAVLSQSLQMHMMTTEAFPFPVLGLVHIRNQIKQIRKIAVNETLTLSCQFGELKPHDKGLQFDFITTAKVGNDIVMEGITTYLSRQKTEQVSAEKPKENKTPDYQVQQVWDVAENTGRRYAKTSGDYNLIHIHAITAKAFGFKQAIAHGMWSKAKALANIVLPDAYEADVWFKLPMYLPSKVEFLTAEQSKETDFLIRNAKSQKPHVSGVVKAL | failed
6 | MIGSTSDGLVPGNTDMPATPTTALTALRTPHPPTGGESMHPRTRTAPALLFAVCLTALAAYPAAADDPVPTTERVSVTLDGAQIDDPSYRPQLTSKGGVVYTSDGPVWSTDHNGVSDAYRNSERVSYNMGAARSYDPSACHTARMIAFVSDRTPAGGTTPSVYVRNTPVGKLSYASHGYQGVPFTWAGQPAMSADCQWMAFSATLPATPDHVEQPRVYRYRIYDGTIEQVSPDSADGSRAAVRPSISADGRYVAYQSSIPHPGGPANDSDIYVRDLETGTLEKASVGRHGRPADRASTGPSLSADGRHVAFDSYASNLAPGDTNGTVNVFVRDLDAGTTRLVKGAGRHAYTAEAALSGDGLHLAYVSAGIRGSRGVPAVYLRDLATGRTRLISVDTRGHRNDRAAGNPSVNPDGTAVAFDSASPDLVPGDTNGTVDVFLRRLGSPEALEHHHHHH | not failed
7 | VWRQYASRALQELGAGKRAIHDVADLTRGSLRIAVTPTFTSYFIGPLMADFYARYPSITLQLQEMSQEKIEDMLCRDELDVGIAFAPVHSPELEAIPLLTESLALVVAQHHPLAVHEQVALSRLHDEKLVLLSAEFATREQIDHYCEKAGLHPQVVIEANSISAVLELIRRTSLSTLLPAAIATQHDGLKAISLAPPLLERTAVLLRRKNSWQTAAAKAFLHMALDKCAVVGGNESR | not failed
8 | MSLKLIGMLDSPYVRRVAISLKSLGLPFEHHSLSVFSTFEQFKAINPVVKAPTLVCEGGEVLMDSSLIIDYLETLAGPQRSLMPTALPQRLRELRLVGLALAACEKSVQIVYERNLRPAEKQHGPWLERVGGQLQAAYGELEQELQKQPLPRDGSLGQAGISLAVAWSFSQMMVADQFNPGQFPAVRGFAEYAEQLPVFLATPATEGHHHHHH | not failed
9 | MQRGSRQLYLGDPATDKLQVPEMPMQVLTAFVPGMEVAISAISSYLSTKKMSEGGAGPLLQKRRPNTRKLWSEGRVQPRPFCVLSGLAPPRSRPGPWGPFKAASWPAGTCFAPSDAAEVAASPLRRRGDCWEGRRDGGSETSSRSRIRVKRDRSKSQSRTKAEGAGRRGPVGPGDPVRPDGEKRLQARRPPAPPLASTDRKTMATMVLPREEKLSQDEIVLGTKAVIQGLETLRGEHRALLAPLASHEAGEAEPGSQERCLLLRRSLEAIELGLGEAQVILALSSHLGAVESEKQKLRAQVRRLVQENQWLREELAGTQQKLQRSEQAVAQLEEEKQHLLFMSQIRKLDEDASPNEEKGDVPKDSLDDLFPNEDEQSPAPSPGGGDVAAQHGGYEIPARLRTLHNLVIQYASQGRYEVAVPLCKQALEDLEKTSGHDHPDVATMLNILALVYRDQNKYKDAAHLLNDALAIREKTLGKDHPAVAATLNNLAVLYGKRGKYKEAEPLCKRALEIREKVLGKFHPDVAKQLSNLALLCQNQGKAEEVEYYYRRALEIYATRLGPDDPNVAKTKNNLASCYLKQGKYQDAETLYKEILTRAHEKEFGSVNGENKPIWMHAEEREESKDKRRDSAPYGEYGSWYKACKVDSPTVNTTLRSLGALYRRQGKLEAAHTLEDCASRSRKQGLDPASQTKVVELLKDGSGGRGDRRGSRDVAGGAGPRSESDLEESGPAAEWSGDGSGSLRRSGSFGKLRDALRRSSEMLVRKLQGGGPQEPPNSRMKRASSLNFLNKSVEEPVQPGGTGLSDSRTLSSSSMDLSRRSSLVG | failed
10 | QPSRFLLKVLAGANIGAEFHLDSGKTYIVGSDPQVADIVLSDMSISRQHAKIIIGNDNSVLIEDLGSKNGVIVEGRKIEHQSTLSANQVVALGTTLFLLVDYAAPS | not failed
11 | MRISKMLVTELNIYPLKSARGIALKESAVSAEGLPGDRRAMLTDPSGHFITQRELPAIATVLARHEDGGMALSRERSGEIFARPSGQRMDVAVWKSIVSANIADDETNDTLSAWLGREVKLVFFDDAAKRIASLEWTGNETPVTFADGYQILVTTTASLAALNDNMRGNGEDAVGMERFRPNIVLETEEAWAEDRWAAIEIGGIRFDLVKPCARCIMTTQDQMTGSRDVPSPMKAMGRIRMSGDRRVPGPLFGWNVTPRGEGRLSVGDVARVVEERPEGWAIKRRLEHHHHHH | not failed
12 | MIKLIATDIDGTLVKDGSLLIDPEYMSVIDRLIDKGIIFVVCSGRQFSSEFKLFAPIKHKLLYITDGGTVVRTPKEILKTYPMDEDIWKGMCRMVRDELPACDYFAATPDFCFAEDGGSPIFHLLRDSYGFEMREVDDITRLDRNDIIKFTVFHPDKCEELCTPVFIPAWNKKAHLAAAGKEWVDCNAKGVSKWTALSYLIDRFDLLPDEVCCFGDNLNDIEMLQNAGISYAVSNARQEVIAAAKHTCAPYWENGVLSVLKSFL | not failed
13 | MEREEIIERFLKFFREYAEEGEEPLYMGKIKDLLTITPKRSIVINWMHLNSYDPELAEEVIENPEECILAAEDAIQIILKEDFLREDVPKIHARFHNLPKTLMVKEVGAEHINKLIQVEGVVTRVTEIKPFVSVAVFVCKDCGHEMVVPQKPYEGFVAVKKCEQCGSKNVQLDVEKSKFVNFQMFRIQDRPESLRGGQMPRFIDGILLDDIVDTAMPGDRVIVVGILRVIQEKREKVPTFKKVIEVNHIEPISKELEELEISPEDEQKIRELAKRKDIVSAIVDSIAPAIYGYKEVKKGIALALFGGVSRTLPDGTRLRGDIHVLLVGDPGVAKCVDYDTEVLLGDGRKRKIGEIVEEAIKKAEKEGKLGRVDDGFYAPINLELYALDVRTLKVRKVKADIAWKRTTPEKMLRIRTKRGREIRVTPTHPFFTLEEGRIKTKKAYELKVGEKIATPREEAPEAEIFWDEVVEIEEYKPNNSWVYDLQVPEHHNFIANGIFVHNSQLLRYVANLAPRAIYTSGKSSSAAGLCVAPDTLINTDNGRVEIGKFVEEWMKEVGEISEEGISYAPCFRKVETFKDGKIVESPIRRVWKLRAPKKLVRIKTENGRSIALTRETKLLTINDGELSWVEAGEVKVGTYVGTVKSEKDVIPGAGKTIRDVSKLYNMEMEVKDYLTREEVRKAIEKLEEIMNPMNIKIPGVQESYEELLRKLETTNDERVRNETLILLSDVSDAHELAKEKIEKIKEIVNSEVHWEKVTEVGEVDGVEYVYDLTVEGSHNFVANGFIVHNTAAVVRDEFTGGWVLEAGALVLADGGYALIDELDKMSDRDRSVIHEALEQQTISLSKAGITATLNARTTVIAAANPKHGRFNRMKRVSEQIDLPPTLLSRFDLIFVLMDEPDEKVDSEIARHILKVRRGESEVVTPKIPHELLRKYIAYARKNIHPVISEEAMEEIEKYYVKMRRSAKKSSGDEIKPIPITARQLEALIRLSEAHARMRLSPIVTREDAREAIKLMEYTLKQIAVDEAGQLDVTILEVGQSARKLSKVERILDIVEKLERTSEKGAKIDDILEEAAKFGIEKSEAREILEKLLEKGQIYMPENGYYKTV | failed
14 | MTTVAVSSLPQGTSVTLRNVTKSFGTTKVLNGLDLNIHSGELVALLGPSGCGKSTLLRIIAGFEAADQGSVLLDDVDVSGVPTNRRDIGLVFQAYSLFPHLNAVENVMYGLSIRHVAKTEAKSSAVELLASVGLADYADRYPAQLSGGQQQRVALARALATKPRVLLLDEPLSALDAKVRVQLRDEIRALQLETHTTTIMVTHDQEEALVMADRIAVMYNGRFEQVGTPAEIYHSPATAFVAGFVGSMNVLPGVLSTDGTAQTIGCRVPVHAAAGAATLNPGPVDVFVRPEELRLQIANDDLNDHDAVLGTVTSTVLRGAFTSVMVAMGDGLHLRVDLPSKDAQLFTPGCSVMVRIADEPMLCTARRVECVA | failed
15 | MEKLLTVFTPTYNRVHTLHKCYESLKNQSCKDFKWLIIDDGSTDGTKDVVKRWIHEKNDFEITYIYQSNKGMHGAHNTAYENIDTELNICIDSDDYMPRDAVEKINKNWNRVKHNKKISGLVGLDSYENGDVIGKKFPEGLKEATLFEINNKYKIPGDKKLVYRSELTKKFPYPIFEGEKYVGLAYKYYKLDEEHRLALINDILCVVEYLEDGSSKNMIKQYKNNPKGFAFYRIENIKNSKATLKFKFKESIHYVASSFISKNKNFLIESPEKILTLLSIPMGMLLYLYIKIKG | failed
16 | MSAICQVTGRQPGYGKSVSHSHRRTSRRWNPNVQRRKFYLPSEGRTITLNVSTKGLKVIDRDGIESVVAKIRARGEKILEHHHHHH | failed
17 | MSSPTRTSAKDRLSGVWALKGYKREWLRHDIVAGAALFALLVPAGMAYAQAAGLPPVTGLYATVVPLLVYAIVGPSRILVLGPDSALAPMIAAAIVPLAAGSSEKSVALAGLLAVLIGVIMLAGSALKLGTITGLLSKPIRLGYLNGIALLVLLSQLPAFFGIEADGDIWEKLAKVTTGVLGGGVNVTALLLGSGSLALIWIPRLLKWKVPGVLLAVVGSCVVTAVWGLNDDVKVTGVLPQGLPMPALGGIGWADALTLLPAAAGIALMAFADTGVLSQTLAAKEGKKVSGNREMAALGAANAATGLLGGFPISGSTSRTPVAVDAGAKSQMTGVVGSVLVLAFMLLAPGVTEYLPSATLAAVVIAAAIALADPAGVKRLLSLSRSESVVMLAAFLGVLTVGVLQGIVVAIALALLDFVRRAWDPYRTELGAEEGLPGYHDLERHPDGERIPGLLILRFDAPLFFGNGQVLAAFVREQLDEAPDETTDAITHVILAAEPITGIDTTALDDLVTLDEWLASKGVDLVFAELKGPVKDKLIHLGTAARFTPDHFFPTVGAAVRTLKNE | failed
